# From paper PMC3250429, “Recombinant Probiotic Expressing Listeria Adhesion Protein Attenuates Listeria monocytogenes Virulence In Vitro” (PLoS ONE, 2012)
# Biological target: human Hsp60 (human, UniProt P10809 27-573, biotin (biotinylated Hsp60, site not stated))
# Experiment: cell-based or functional assay
# Chain of human Hsp60 (P10809 27-573): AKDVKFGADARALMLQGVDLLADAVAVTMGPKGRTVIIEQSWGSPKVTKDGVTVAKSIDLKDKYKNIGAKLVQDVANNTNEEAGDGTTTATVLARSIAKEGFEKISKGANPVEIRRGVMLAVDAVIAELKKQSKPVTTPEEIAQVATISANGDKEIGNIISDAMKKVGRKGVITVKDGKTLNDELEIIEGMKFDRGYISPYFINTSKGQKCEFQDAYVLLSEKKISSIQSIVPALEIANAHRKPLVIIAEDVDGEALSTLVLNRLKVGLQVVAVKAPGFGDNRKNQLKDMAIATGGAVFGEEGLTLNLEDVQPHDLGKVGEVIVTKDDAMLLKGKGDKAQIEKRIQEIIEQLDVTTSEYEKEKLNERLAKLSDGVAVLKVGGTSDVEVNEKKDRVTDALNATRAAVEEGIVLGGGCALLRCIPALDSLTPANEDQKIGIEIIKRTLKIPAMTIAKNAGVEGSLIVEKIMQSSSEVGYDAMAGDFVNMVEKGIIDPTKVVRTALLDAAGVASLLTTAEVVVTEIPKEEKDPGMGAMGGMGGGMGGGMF
binder,measurement,value
Listeria adhesion protein (LAP) of L. monocytogenes expressed on recombinant Lactobacillus paracasei (Lbp^LAP) (natural protein) MAIKENAAQEVLEVQKVIDRLADNGQKALKAFESYNQEQVDNIVHAMALAGLDQHMPLAKLAVEETGRGLYEDKCIKNIFATEYIWNNIKNNKTVGVINEDLQTGVIEIAEPVGVVAGVTPVTNPTSTTLFKAIIAIKTRNPIIFAFHPSAQRCSSAAAKVVYDAAIAAGAPEHCIQWVEKPSLEATKQLMNHDKVALVLATGGAGMVKSAYSTGKPALGVGPGNVPAYIDKTAKIKRSVNDIILSKSFDQGMICASEQAVIVDKEVAKEVKAEMEANNCYFVKGAEFKKLESYVINPEKGTLNPDVVGKSPAWIANQAGFKVPEDTKILVAEIKGVGDKYPLSHEKLSPVLAFIEAANQAEAFDRCEEMLVYGGLGHSAVIHSTDKEVQKAFGIRMKACRIIVNAPSAQGGIGDIYNGFIPSLTLGCGSYGKNSVSQNVSATNLLNVKRIADRRNNMQWFKLPPKIFFEKYSTQYLQKMEGVERVFIVTDPGMVQFKYVDVVIEHLKKRGNDVSYQVFADVEPDPSDVTVYKGAELMKDFKPDTIIALGGGSAMDAAKGMWLFYEHPEASFFGLKQKFLDIRKRTFKYPKLGGKAKFVAIPTTSGTGSEVTPFAVITDKENNIKYPLADYELTPDVAIVDAQYVTTVPAHITADTGMDVLTHAIESYVSVMASDYTRGLSIRAIELVFENLRESVLTGDPDAREKMHNASALAGMAFANAFLGINHSLAHKIGPEFHIPHGRANAILMPHVIRYNALKPKKHALFPRYESFRADEDYARISRIIGFPAATTEEGVKSLVDEIIKLGKDVGIDMSLKGQNVAKKDLDAVVDTLADRAFMDQCTTANPKQPLVSELKEIYLEAYKGV,"transepithelial translocation of Lbp^LAP cells through Caco-2 monolayers (transwell, 2 h), against Lbp^WT",5.1 fold
